Assay [1] deals with thrombin.
Assay [2] has as its target thrombin. This is another data set of the same source.
The target in assay [3] is thrombin. This is another data set of the same source.

In the assay with thrombin [1], “hirudin variant 1 with its endogenous wild-type signal peptide (WT-HV1), cell-free synthesized in K562 cell lysate (from UniProt P01050 1-65) (natural protein)” showed a thrombin time test at equimolar 3.1 nmol/l, effect against rHV1 (fold against rHV1) of 100. Further, in the assay with thrombin [2], the thrombin time test, clotting time with 10 µl SN2 fraction came out at 242 s. The same substance showed a thrombin time test at 1, 4.9 and 9.8 nmol/l, potency against Mel-HV1 (fold against Mel-HV1) with thrombin [3] greater than 10.
As to “hirudin variant 1 with its endogenous wild-type signal peptide (WT-HV1), cell-free synthesized in Sf21 cell lysate (from UniProt P01050 1-65) (natural protein)”, the thrombin time test at equimolar 3.1 nmol/l, elongation of TT against rHV1 (fold against rHV1) with thrombin [1] was greater than 2. Besides, the thrombin time test, clotting time with 10 µl SN2 fraction in the assay with thrombin [2] was 50 s.
With “hirudin variant 1 with its endogenous wild-type signal peptide (WT-HV1), cell-free synthesized in CHO cell lysate (from UniProt P01050 1-65) (natural protein)”, the thrombin time test at equimolar 3.1 nmol/l, elongation of TT against rHV1 (fold against rHV1) in the assay with thrombin [1] was 9. This substance also gave a thrombin time test, clotting time with 10 µl SN2 fraction with thrombin [2] of 94 s.

Source of the values: article PMC7666225.
